Measured values: the supplement of paper PMC12455559
± gives the standard deviation of the averaged measurements.

Key:
[1] = purified protein yield per well (BCA); higher = higher soluble expression
Summary of the method: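 Candidate enzymes were expressed in E. coli C41(DE3) in 2 mL autoinduction cultures with 100 µg/mL kanamycin, at 37 °C for 2 h and then 18 °C for 40 h. Cells were lysed, and protein was bound to Ni-charged magnetic beads and released by SUMO protease cleavage on an OT-2 robot. The read-out is purified protein yield per well, measured with the Pierce Rapid Gold BCA kit. Values below 25 ug (0.1 mg/mL) are below the detection threshold.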

[2] = PET hydrolysis, aromatic products released after 48 h (umol product/mg enzyme); higher = more PET depolymerization activity
Description: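 HTP-purified, SUMO-cleaved, tagless PET hydrolase candidates (5 ug, 1.43 mg/g PET) were incubated 48 h without shaking with 3.5 mg amorphous PET film (aFilm) or crystalline PET powder (cryPow) in 0.5 mL buffer: NaCitrate pH 4.5/5.5, NaPhosphate pH 6.5/7.5, glycine pH 8.5. Incubation was at 40 or 60 C. Aromatic products (TPA, MHET, BHET) in the supernatant were quantified by UV absorbance at 260/280 nm relative to buffer blanks and expressed per mg enzyme. LCC-ICCG was the positive control on every plate.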

[3] = substrate: cryPow, 40 °C, pH 4.5
[4] = substrate: cryPow, 40 °C, pH 5.5
[5] = substrate: cryPow, 40 °C, pH 6.5
[6] = substrate: cryPow, 40 °C, pH 7.5
[7] = substrate: cryPow, 60 °C, pH 4.5
[8] = substrate: cryPow, 60 °C, pH 5.5
[9] = substrate: cryPow, 60 °C, pH 6.5
[10] = substrate: cryPow, 60 °C, pH 7.5
[11] = substrate: cryPow, 40 °C, pH 8.5
[12] = substrate: cryPow, 60 °C, pH 8.5

Sequence | purified protein yield per well [1] | PET hydrolysis ([2]; substrate: aFilm, 40 °C, pH 4.5) | PET hydrolysis ([2]; substrate: aFilm, 40 °C, pH 5.5) | PET hydrolysis ([2]; substrate: aFilm, 40 °C, pH 6.5) | PET hydrolysis ([2]; substrate: aFilm, 40 °C, pH 7.5) | PET hydrolysis ([2]; substrate: aFilm, 60 °C, pH 4.5) | PET hydrolysis ([2]; substrate: aFilm, 60 °C, pH 5.5) | PET hydrolysis ([2]; substrate: aFilm, 60 °C, pH 6.5) | PET hydrolysis ([2]; substrate: aFilm, 60 °C, pH 7.5) | PET hydrolysis [2, 3] | PET hydrolysis [2, 4] | PET hydrolysis [2, 5] | PET hydrolysis [2, 6] | PET hydrolysis [2, 7] | PET hydrolysis [2, 8] | PET hydrolysis [2, 9] | PET hydrolysis [2, 10] | PET hydrolysis [2, 11] | PET hydrolysis [2, 12]
ADNPYQRGPDPTPASVAAVNGPFATASVSVPAGYGFGGGMIYYPTDTSQGTFGGIAISPGYTALFSAELAWMGPWLASHGFVVIGIETNSRNDFDEARGTQLLAALDYLTQQSPVRTRVDPNRLAVSGHSMGGGGALNAAIRRPSLKAAVGLAPFLPSSNLANDRVPTMVFAGQQDTVVSPSYVTNLYNSLPATTESAYLEIAGGDHGFPVGRPNQVMIRTMLPFVKIFLDNDTRYSQFLCPLMDSTGVVTYRSTCPLLPPGLPTTPPTSTSSNPTVGPTTPSTTAPTTTPAPGGACTATYRTTNSWPGGFQGEVTITAGSSAINGWTVRWTLGSGQTISQVWNGEVSITGSTVSVRNAPYNGSLPASGSTTFGFLGGGSPSSPSLTCTSP [TEP165] | 433 µg | < 3 | < 3 | 2 ± 2.8 | < 3 | 2 ± 2.8 | < 3 | 1.5 ± 2.1 | < 3 | 4.5 ± 0.71 | 11 | 52 ± 2.8 | 67 ± 11 | 12 | 25 | 46 ± 1.4 | 45.5 ± 2.1 |  | 
AEPATIHGPAPTEESITAPTGPFEIDRETVPRSTVEGFGGGTIYYPTDTSEGTFSAVAIAPGYTAGQETLAWLGPRLASQGFVVFTIDTITTSDRPDARAEQLAASLDYLTGSSEVQDRIDPARLGVMGHSMGGGGALQAALDDPGLKAAIPMTPWNTVKDFSGVRTPTMIIGAQNDTVAPVAQHSEPFYESLPDDPGKAYLELAGASHFAPNRDDTTIAKSSIAWLKRFLDDDTRYDRFLCPPPQDPEISDYRATCPY [DP023] | 33 µg |  |  |  |  |  |  |  |  |  | < 3 | < 3 | < 3 |  |  |  |  | < 3 | 
AETTTQHGPDPTEGSITAPTGPFQTDQKTVPRSSVQGFGGGTIYYPTETSQGTFGAVTIAPGYTAGKESLAWLGPRLASQGFVVFTIDTITTSDQPDSRAKQLMASLDYLTGDSDVRDRIDTSRLAVMGHSMGGGGTLEAARDNRNLKAAIPMTPWDTTKDFSGVQTPTLIIGAQNDTIAPVAQHAKPFYGSLPDDPGKAYLELAGASHFAPNQDNTTIAKSSIAWLKRFVDDDTRYDQFLCPPPQDAEISDYQSTCPY [TEP037] | 77 µg |  |  |  |  |  |  |  |  | < 3 | 5 | < 3 | < 3 | < 3 | < 3 | < 3 | < 3 |  | 
ATAAPLPHAAADNPYQRGPDPTIAMIESTRGPFATASVSVPPGNGFNGGMIYYPTDTSQGTWGALAIVPGYTALFANEEAWMGPWLSSFGFVVIGVETNSRTDFDTARGTQLLAALDYLTTKSPVHDRVDPNRLSVLGHSMGGGGVVYATEHRPSLKAAVALAPFSPSQNMSTDTVPTMVIGGQNDTVVTPSYVDGLYATLPATTPSDFAQIAGADHVYYTHPNNVEMKLLIPWLKTFVDNDTRYTQFLCPTLPDPSTVSAYRPKCPYVPGGGTTPPPTGNTGPLHAVGAGKCLNAGASGSQAQIQDCTGGASQVWTHTDANQLSVTNGSQLCLDASGQGTSPGTKVITWACNGQPNQQWTVNSDGTVKGVQSGLCLDVSGASTASGALVQLWTCNGQPNQQWRLG [TEP062] | 85.2 µg |  |  |  |  |  |  |  |  | < 3 | < 3 | < 3 | < 3 | < 3 | < 3 | < 3 | < 3 |  | 
ATPARPASVAAAPAAVQRAADNPYQRGPAPTEASITAEKGPFAVETIPVPAGSGTGFNKGTVYAPTDTSEGTFGAIVVSPGFVSPEAWISWYGPRLASQGFVVMTLETNSLVDVPASRGDQLLAALDWLTGKSSVKNRIDASRTAVMGHSMGGGGTLEAANKRPSLKADIPLAPWDTNYNFPNIKTPTLIMGADNDLIAPASSMAESYYNNITTAPEKAYLLLKNAGHMTFVSPNTTIAKYSIAWMKRFVDNDTRYDQFLCPAPKPDANIAKYLDTCPNG [DP016] | 83 µg |  |  |  |  |  |  |  |  |  | 4 | 14 | 17 |  | 10 | 10 | 7 | 4 | < 3
ATTAAAPAAAVRADSPYQRGPAPTEASVTAARGPFAIAQVTVPAGSGTGFNKGTIYYPTDTGQGTFGGVAVMPGFTSPQSVIQWLGPRLASQGFLVFTLDSLSLVDFPTARSQQLLAALDYLATRSTVRTRLDPNRLAVMGHSMGGGASLWAAQNRPSLKASVPLAPWETDTTWQGVRVPTMIIGGQADTVAPPATMAIPDYTSMTSAPEKAYLELRNGGHGAPATESPTVAKYALSWLKRFVDLDTRYDQFLCPAPAPTTAISQYRDTCPNG [DP058] | 52 µg |  |  |  |  |  |  |  |  |  | < 3 | < 3 | < 3 |  | < 3 | < 3 | < 3 | < 3 | < 3
CAAGGPGASPGLQPTIASLSVDGAFKVMTYTDIPDVPEFGDATVYYPADTPTPIGGVAISPGWTEAQRHINWWGPRLASHGYAVLVLDTNDARRDQPEERAEALIAAVRILRGENDRAESPLQGRVDTGKMAIMGHSMGGGGTLIAANKYPDEIQAAIPFTPWQPDGDFGQITAPTLVMAGSADRVAGVADHAWPHYQSIPETTTKVFMEVDGGNHFIADTRRGTDLGTIGRYGIAWLKLYLDGDERYRSFIYGAEAEVDREKFSRYLTSP [TEP119] | 78.9 µg |  |  |  |  |  |  |  |  | < 3 | < 3 | < 3 | < 3 | < 3 | < 3 | < 3 | < 3 |  | 
CATAGSALVSAPSLSGDGSYEVQTYTDFPDVPEFGAATIYYPVGASEPMGGVAIAPGFTEEQRHIAWWGPRLASHGYAVLVLDTNDRRERPDARADALIAGVTLLRAEGRRRGSPLFGRIDAAKMAIMGHSMGGGGALLAADEHSDLIRAAIPFTPWEPETDLRGISAPTLVLAGAADRVAEVEGHAWRHFSMIPESTPKVYMEIAGGDHYIADTTRGMDLATVGRYAIAWLKLYVDGDEQYRDLIYGEIPPADAAKFSRYVVNP [TEP157] | 80.2 µg |  |  |  |  |  |  |  |  | < 3 | < 3 | < 3 | < 3 | < 3 | < 3 | < 3 | < 3 |  | 
DQIGQAPTASNITGDGSFAVTSSAVSGQTGFGGGTVYYPTQTGTYPVVAIMPGFLELWDAIKWMGPRLASWGYVVVGVNPNSVFDLPDSRGSQLLAALNWAVGSAPSAVQSRADGTRRGVVGYSMGGGGTLEALSRDTSGKVLAGVAFSPWDTNQNWSTVRQPEFIVGAQNDTVAPPAQHAIPFYNSLAGPKTYVELAGADHLWPTSDNPTGSRAMVSWLKRWLNSDSRFTPFTCGFTGSAISASMSNAC [ESM047] | 48.3 µg |  |  |  |  |  |  |  |  | 20 | 55 | 47 | 8 |  |  |  |  |  | 
DSPYERGPDPTTSSIEASSGPFDVDEDSVSSWSVSGFGGGTVYYPEDDGQTYGGVVIAPGYTESSSAMAWLGEYLASHGFVAFNIDTNTRYDQPDSRGRQIEAALDYLAEDSDVSDLVDPNRLAAMGHSMGGGGTLAAAEDRPELKAAIPLTPWHTDKTWGGVTVPTMIIGAENDTIAPNSSHSIPFYNSLSTSTERAYVELDGEGHLVTSSRNTELASNSVSWLKVFVDEDDRYEQFLCPAPSTGWGSPYSDYRDSCPYI [DP033] | 31 µg |  |  |  |  |  |  |  |  |  | < 3 | < 3 | < 3 |  |  |  |  | < 3 | 
DTGSHERGPDPTEQALEARSGPFDTDDERVSSLGASGFGGGTIYYPEDTSEGDFGAVALAPGYTASSTSYSSLAERIASHGFVVLAFDTNTRYDQPNSRGRQMESALEYLTEDSDVTDRIDTDRQAVSGHSMGGGGTLAAADDNPDLQAAVPLTPWHTQKSWSGMQVPTMIIGAENDSIASVRSHSIRFYESLPGSLEKGYAEVDGASHFAPNSNDDTVAKYTITWLKRFVDNDTRYEQFLCPPPDSGGWGDDLSDYRDSCPTG [DP052] | 36 µg |  |  |  |  |  |  |  |  |  | < 3 | < 3 | < 3 |  |  |  |  | < 3 | 
DTNPFQRGPAPTEASVSAQKGPFATAQVNVPANSGEGFNDGTIYYPTDTSQGTFGAIAVMPGFLSPQDWIRWYGPTLASQGFVVMTLDSKGFIDSPTARGNQLLAALDYLTTKSKVVDRIDTSRLGVVGWSMGGGGALESTYNRPSLKADVALAPWHVGLDQSKITVPSLILADDNDWLAPTGSFAKPFYAGIPESTNKAFIELKNANHFTFTGYNKNIAKYAVSWLKRFVDDDTRYDQFLCPKPATNNEISQSEETCPLH [DP054] | 39 µg |  |  |  |  |  |  |  |  |  | 5 | 7 | < 3 |  |  |  |  | < 3 | 
GESPGAAVVAFAGHAKGPAPTEQSVRAQQGPFTTDKLVVPAQAGRGFNKGTIYYPDDTSQGTFGAVAVIPGFLEGESAISWLGPTLASHGFITLTLAPNATTDYPEPRSNQLLAAVDWLANQSPVKDRVDPNRLAVAGHSMGGGGTLIAASKNPALKAAVPLTPWNPHSNFSDVTVPTLIIGADRDFIAPTFMHASPMYNSLKAKQDQAYLKLKNADHFATNRYNATATAYTVSWLKRYVDEDTRYSQFLCPVKSGFQLTCPI [DP011] | 26 µg |  |  |  |  |  |  |  |  |  | < 3 | < 3 | < 3 |  |  |  |  | < 3 | 
MHPTPDRAKVLPVNVSRGPAEPPAARSARPGGRSAPDGLRPGRRRPVPSSEQGATDVQSHPPTPANRRTRTVATLALALTLVGGAGAIAPTAHAAAGHERGPNPTSAALEASRGPFSVSSTTVSSLSASGFGGGTIYYPNDTGQGTFGGVIVAPGFTASRSTMAWLAERLASHGFVVFNIDTITRSDQPDSRGRQLLAAADHLAEESSPAVRSRLDAGRIGVMGHSMGGGGTLAAAESRPSLQAAVPLTPWHTDKSWGSVQVPTMIIGAENDSVAPVSSHAEPFYNSLSSAQEKAYLELNGASHFAPNSSNSTLAKYSIAWMKRFVDDDLRYDQFLCPAPGRSTRIEEYRSSCPH [TEP081] | 35.7 µg |  |  |  |  |  |  |  |  | < 3 | < 3 | < 3 | < 3 |  |  |  |  |  | 
MPQQAQAGPGNPYERGPAPTEASVTAERGPFAVSQKAVPESADGRFNKGTVYYPTDTSQGTFGAVAISPGFVSPEAAVGWLGPRLASQGFVVMTLETNTPLDFPDQRADQLLGALDWLTTSSDVRERIDASRLAVAGHSMGGGASLRASEKRPTLQAAVPLTPWHTDKTWEKDPVPTLVVGAENDTVAPVAEHAEPFYSSLSAAPEKAYLELEGADHLAPVAPNVTVAKYAISWLKRYVDDDTRYEQFLCPPPRPSSTISEYRDTCPGS [TEP193] | 50.4 µg |  |  |  |  |  |  |  |  | < 3 | < 3 | < 3 | < 3 |  |  |  |  |  | 
